# Data: the supplement of paper PMC9112550, “Optimization of the antimicrobial peptide Bac7 by deep mutational scanning” (BMC Biology, 2022)
# Tested on: Escherichia coli TOP10
# Test: shrunken log2 fold change of peptide-encoding DNA abundance (4.5 h post-induction vs induction); higher = less antimicrobial activity (less host growth inhibition)
# Conditions: time post-induction: 4.5 h; library: site-saturation at positions 5, 18, 19, 20
# 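Note: peptides expressed intracellularly from a pBAD plasmid library in pooled LB shake-flask culture, induced with 0.3% L-arabinose, DNA abundance read by NGS, three biological replicates, DESeq2 with apeglm shrinkage.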
row,Sequence,shrunken log2 fold change
1,RRIRSRPPRLPRPRPRPSMAPRP,0.223
2,RRIRNRPPRLPRPRPRPLDGPRP,-0.0308
3,RRIRMRPPRLPRPRPRPWLSPRP,0.0302
4,RRIRIRPPRLPRPRPRPTSIPRP,-0.182
5,RRIRSRPPRLPRPRPRPWFLPRP,-0.565
6,RRIRQRPPRLPRPRPRPMRMPRP,0.0593
7,RRIRLRPPRLPRPRPRPNIQPRP,-0.689
8,RRIRQRPPRLPRPRPRPILNPRP,-0.098
9,RRIRERPPRLPRPRPRPIHTPRP,0.0013
10,RRIRNRPPRLPRPRPRPLKSPRP,-0.258
11,RRIRGRPPRLPRPRPRPSPNPRP,0.244
12,RRIRDRPPRLPRPRPRPITQPRP,0.000804
13,RRIRNRPPRLPRPRPRPLVYPRP,-0.943
14,RRIRFRPPRLPRPRPRPDISPRP,-0.216
15,RRIRFRPPRLPRPRPRPWNHPRP,-0.141
16,RRIRGRPPRLPRPRPRPEHQPRP,0.529
17,RRIRERPPRLPRPRPRPLRKPRP,0.722
18,RRIRFRPPRLPRPRPRPAVNPRP,-0.106
19,RRIRSRPPRLPRPRPRPQYHPRP,-0.9
20,RRIRCRPPRLPRPRPRPTSKPRP,0.921
21,RRIRWRPPRLPRPRPRPTEDPRP,0.0661
22,RRIRDRPPRLPRPRPRPNKKPRP,-0.117

row,Sequence,shrunken log2 fold change
1,RRIRYRPPRLPRPRPRPSLLPRP,-0.727
2,RRIRLRPPRLPRPRPRPCTEPRP,-0.0105
3,RRIRIRPPRLPRPRPRPFAMPRP,-0.98
4,RRIRRRPPRLPRPRPRPTNHPRP,-0.0627
5,RRIRFRPPRLPRPRPRPFQMPRP,-0.647
6,RRIRMRPPRLPRPRPRPQYTPRP,-0.0579
7,RRIRLRPPRLPRPRPRPDREPRP,0.0246
8,RRIRDRPPRLPRPRPRPCITPRP,-0.128
9,RRIRRRPPRLPRPRPRPQTSPRP,0.24
10,RRIRCRPPRLPRPRPRPIIWPRP,-0.178
11,RRIRNRPPRLPRPRPRPPLEPRP,0.193
12,RRIRTRPPRLPRPRPRPTQPPRP,0.176
13,RRIRFRPPRLPRPRPRPVGLPRP,0.0115
14,RRIRFRPPRLPRPRPRPRYYPRP,-0.617
15,RRIRGRPPRLPRPRPRPWRDPRP,0.0475
16,RRIRVRPPRLPRPRPRPWGMPRP,0.0336
17,RRIRLRPPRLPRPRPRPGDNPRP,0.0735
18,RRIRERPPRLPRPRPRPFFGPRP,-0.217
19,RRIRCRPPRLPRPRPRPWTMPRP,0.0153
20,RRIRFRPPRLPRPRPRPLFVPRP,-0.424
21,RRIRQRPPRLPRPRPRPAMQPRP,0.109
22,RRIRKRPPRLPRPRPRPVDDPRP,0.508

row,Sequence,shrunken log2 fold change
1,RRIRKRPPRLPRPRPRPTPIPRP,0.639
2,RRIRKRPPRLPRPRPRPSEAPRP,0.401
3,RRIRDRPPRLPRPRPRPNYYPRP,-0.305
4,RRIRGRPPRLPRPRPRPENGPRP,0.223
5,RRIRERPPRLPRPRPRPYDAPRP,0.835
6,RRIRKRPPRLPRPRPRPSTHPRP,-0.17
7,RRIRARPPRLPRPRPRPTAIPRP,0.977
8,RRIRDRPPRLPRPRPRPIYHPRP,-0.827
9,RRIRFRPPRLPRPRPRPLVKPRP,-0.143
10,RRIRGRPPRLPRPRPRPSEAPRP,0.848
11,RRIRHRPPRLPRPRPRPRSTPRP,-0.00721
12,RRIRKRPPRLPRPRPRPCWKPRP,0.0714
13,RRIRPRPPRLPRPRPRPQTMPRP,0.235
14,RRIRPRPPRLPRPRPRPMYIPRP,-0.0479
15,RRIRQRPPRLPRPRPRPQNIPRP,-0.882
16,RRIRDRPPRLPRPRPRPQTPPRP,0.4
17,RRIRNRPPRLPRPRPRPDRGPRP,-0.0223
18,RRIRWRPPRLPRPRPRPDSAPRP,0.139
19,RRIRGRPPRLPRPRPRPGAFPRP,0.773
20,RRIRWRPPRLPRPRPRPRYWPRP,0.185
21,RRIRYRPPRLPRPRPRPQWNPRP,-0.108
22,RRIRARPPRLPRPRPRPRSYPRP,0.242

row,Sequence,shrunken log2 fold change
1,RRIRHRPPRLPRPRPRPDASPRP,0.221
2,RRIRYRPPRLPRPRPRPWGKPRP,-0.461
3,RRIRSRPPRLPRPRPRPAPIPRP,0.133
4,RRIRDRPPRLPRPRPRPYWEPRP,-0.0419
5,RRIRNRPPRLPRPRPRPDLKPRP,0.0748
6,RRIRNRPPRLPRPRPRPHMWPRP,-0.0758
7,RRIRWRPPRLPRPRPRPANDPRP,-0.0438
8,RRIRFRPPRLPRPRPRPWYVPRP,-0.757
9,RRIRKRPPRLPRPRPRPGLLPRP,0.494
10,RRIRDRPPRLPRPRPRPTHLPRP,-0.175
11,RRIRIRPPRLPRPRPRPLQPPRP,0.327
12,RRIRKRPPRLPRPRPRPMERPRP,-0.024
13,RRIRYRPPRLPRPRPRPDVRPRP,-0.0526
14,RRIRKRPPRLPRPRPRPSCAPRP,0.523
15,RRIRSRPPRLPRPRPRPQVCPRP,-0.0852
16,RRIRIRPPRLPRPRPRPSNTPRP,-0.515
17,RRIRLRPPRLPRPRPRPHREPRP,-0.969
18,RRIRMRPPRLPRPRPRPYDQPRP,0.102
19,RRIRYRPPRLPRPRPRPIWCPRP,-0.268
20,RRIRHRPPRLPRPRPRPWKMPRP,0.00115
21,RRIRCRPPRLPRPRPRPAMFPRP,-0.0946
22,RRIRWRPPRLPRPRPRPSTQPRP,0.0274

row,Sequence,shrunken log2 fold change
1,RRIRGRPPRLPRPRPRPPCKPRP,0.339
2,RRIRPRPPRLPRPRPRPMVHPRP,0.137
3,RRIRIRPPRLPRPRPRPMGQPRP,-0.077
4,RRIRYRPPRLPRPRPRPMYWPRP,-0.451
5,RRIRFRPPRLPRPRPRPSAAPRP,0.346
6,RRIRPRPPRLPRPRPRPMAQPRP,0.177
7,RRIRHRPPRLPRPRPRPGREPRP,0.0529
8,RRIRERPPRLPRPRPRPVHNPRP,-1.53
9,RRIRYRPPRLPRPRPRPHHFPRP,-0.288
10,RRIRLRPPRLPRPRPRPLCPPRP,-0.0651
11,RRIRLRPPRLPRPRPRPVTNPRP,-0.0302
12,RRIRLRPPRLPRPRPRPHILPRP,-0.0127
13,RRIRMRPPRLPRPRPRPLKDPRP,0.0898
14,RRIRDRPPRLPRPRPRPCCTPRP,0.149
15,RRIRRRPPRLPRPRPRPMWLPRP,0.105
16,RRIRWRPPRLPRPRPRPMTMPRP,-0.385
17,RRIRWRPPRLPRPRPRPDKMPRP,-0.0535
18,RRIRLRPPRLPRPRPRPMYEPRP,0.129
19,RRIRLRPPRLPRPRPRPGEPPRP,-0.0262
20,RRIRKRPPRLPRPRPRPNHFPRP,-2.08
21,RRIRQRPPRLPRPRPRPSWFPRP,-0.323
